For 1 substance, percent less strongly associated with Cdc27 than the WT results are on record in publication PMC2836971.

The test has as its target Myc-tagged Emi2-C RL^+ mutant (only the RL motif intact; D-box and ZBR mutated) (Xenopus) (UniProt Q8AXF4). In words: co-IP.

As to “Cdc27 (APC/C core subunit), endogenous in Xenopus CSF extracts (natural protein)”, the percent less strongly associated with Cdc27 than the WT came to 50%.
